# Experiments:
# human C4b (human) = target: T1, human C4b (human) (UniProt P0C0L5)
# T1 sequence: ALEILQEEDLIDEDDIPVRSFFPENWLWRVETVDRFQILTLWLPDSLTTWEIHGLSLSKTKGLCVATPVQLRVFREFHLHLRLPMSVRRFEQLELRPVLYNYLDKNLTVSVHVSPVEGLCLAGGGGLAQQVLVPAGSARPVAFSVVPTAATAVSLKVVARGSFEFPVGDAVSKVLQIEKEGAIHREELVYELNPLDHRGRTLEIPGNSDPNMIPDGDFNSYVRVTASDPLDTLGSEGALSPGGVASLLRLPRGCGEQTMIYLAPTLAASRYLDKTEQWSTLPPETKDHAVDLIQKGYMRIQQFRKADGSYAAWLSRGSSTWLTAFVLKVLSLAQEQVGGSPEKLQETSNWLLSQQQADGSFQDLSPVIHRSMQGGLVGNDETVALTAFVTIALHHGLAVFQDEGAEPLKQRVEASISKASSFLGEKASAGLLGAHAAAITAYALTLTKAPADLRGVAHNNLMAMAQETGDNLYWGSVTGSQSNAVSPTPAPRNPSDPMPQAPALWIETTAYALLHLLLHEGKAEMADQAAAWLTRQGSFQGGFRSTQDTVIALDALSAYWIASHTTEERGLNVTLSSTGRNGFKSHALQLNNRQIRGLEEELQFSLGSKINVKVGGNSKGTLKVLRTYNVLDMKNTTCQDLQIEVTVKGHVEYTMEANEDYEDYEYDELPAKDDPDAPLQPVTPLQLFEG
# [1] = target: soluble human C3b (human) (UniProt P01024)
# Chain of WT; GGSSGG (SEQ ID NO: 6); CCP_2-4 (enzyme) (chain): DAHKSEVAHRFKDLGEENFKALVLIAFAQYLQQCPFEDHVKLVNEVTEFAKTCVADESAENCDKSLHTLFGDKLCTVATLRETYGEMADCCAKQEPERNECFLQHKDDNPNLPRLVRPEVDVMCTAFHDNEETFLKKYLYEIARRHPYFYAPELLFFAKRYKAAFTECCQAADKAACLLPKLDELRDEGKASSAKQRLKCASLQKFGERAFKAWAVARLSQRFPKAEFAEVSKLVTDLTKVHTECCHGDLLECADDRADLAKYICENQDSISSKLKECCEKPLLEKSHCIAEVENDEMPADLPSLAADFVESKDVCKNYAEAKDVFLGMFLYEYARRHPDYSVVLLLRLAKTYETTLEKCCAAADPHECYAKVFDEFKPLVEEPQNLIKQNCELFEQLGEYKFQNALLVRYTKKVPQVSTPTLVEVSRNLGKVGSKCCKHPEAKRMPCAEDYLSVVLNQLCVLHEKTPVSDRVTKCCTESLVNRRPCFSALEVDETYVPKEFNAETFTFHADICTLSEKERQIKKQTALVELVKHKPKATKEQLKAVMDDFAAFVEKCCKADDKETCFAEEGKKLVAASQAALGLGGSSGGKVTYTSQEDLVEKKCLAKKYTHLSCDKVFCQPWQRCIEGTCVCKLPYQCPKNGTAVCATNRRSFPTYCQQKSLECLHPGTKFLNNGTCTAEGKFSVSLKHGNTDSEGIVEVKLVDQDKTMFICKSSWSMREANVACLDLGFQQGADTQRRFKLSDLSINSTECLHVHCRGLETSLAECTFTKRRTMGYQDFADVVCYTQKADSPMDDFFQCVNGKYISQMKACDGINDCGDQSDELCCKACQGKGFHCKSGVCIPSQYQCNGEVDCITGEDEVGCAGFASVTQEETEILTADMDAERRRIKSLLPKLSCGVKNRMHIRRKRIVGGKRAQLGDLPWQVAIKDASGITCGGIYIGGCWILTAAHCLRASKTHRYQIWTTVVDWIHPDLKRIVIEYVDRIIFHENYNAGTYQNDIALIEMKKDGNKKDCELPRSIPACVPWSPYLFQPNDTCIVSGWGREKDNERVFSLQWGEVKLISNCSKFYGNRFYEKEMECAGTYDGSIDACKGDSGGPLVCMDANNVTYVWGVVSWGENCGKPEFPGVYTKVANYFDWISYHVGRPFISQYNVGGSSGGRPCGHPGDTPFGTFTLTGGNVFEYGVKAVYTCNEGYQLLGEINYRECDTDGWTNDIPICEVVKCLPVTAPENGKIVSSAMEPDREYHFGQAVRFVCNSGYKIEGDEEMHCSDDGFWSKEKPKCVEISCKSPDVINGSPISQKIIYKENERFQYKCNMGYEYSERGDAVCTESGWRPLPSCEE
C4b Screen Ref Fold (fold vs CFI-HSA wild type) (human C4b (human)),iC3b Screen Ref Fold (fold vs CFI-HSA wild type) [1],Substance,further results
0.53,1.46,CFI-HSA K424H (enzyme),
0.31,0.11,CFI-HSA variant R462A (enzyme),
0.76,0.93,CFI-HSA Y553S (enzyme),
3.57,0.5,CFI-HSA N531G; E457G; E461Q; ΔC-term (Δ558-PFISQYNV (SEQ ID NO: 14)-565) (enzyme),
2.27,0.15,CFI-HSA R557L (enzyme),
0.03,-0.01,CFI-HSA V526G (enzyme),
2.12,0.08,CFI-HSA R557Q (enzyme),
0.5,-0.01,CFI-HSA R557D (enzyme),
0.48,0.88,CFI-HSA Y553G (enzyme),
3.98,0.57,CFI-HSA N531G; P535A; R557A (enzyme),
1.49,1.12,CFI-HSA Y553K (enzyme),
-0.04,0,CFI-HSA variant T495F; Y496L; D497E; S499G; I500K (enzyme),
0.47,1.27,CFI-HSA K424Q (enzyme),
0.07,0.15,CFI-HSA variant 420-DGNK (SEQ ID NO: 15)-424 --> GG (enzyme),
0.14,1.01,CFI-HSA variant S250A; D425R (enzyme),
-0.02,0.12,CFI-HSA variant E530G (enzyme),
0.91,1.23,CFI-HSA A342G (enzyme),
0.04,0.03,CFI-HSA R456G (enzyme),
0.51,1.06,CFI-HSA Y553I (enzyme),
0,0.02,CFI-HSA variant W381K (enzyme),
1.61,0.04,CFI-HSA R557G (enzyme),
0.06,0,CFI-HSA variant D506V (enzyme),
0.63,0.74,CFI-HSA R365Y (enzyme),
0.11,0.23,CFI-HSA K423A (enzyme),

# More lines, now with the values behind:
Substance,C4b Screen Ref Fold (fold vs CFI-HSA wild type) (human C4b (human)),iC3b Screen Ref Fold (fold vs CFI-HSA wild type) [1],further results
CFI-HSA Y408L; D425R; E530Y (enzyme),1.05,1.95,
CFI-HSA K424M (enzyme),0.33,0.95,
CFI-HSA D549H (enzyme),0.92,0.73,
CFI-HSA R557P (enzyme),3,0.04,
CFI-HSA variant Y553H; F559L; V565I (enzyme),,,C4b Screen Ref Fold (fold of CFI-HSA wild type) (human C4b (human)): 1.23; iC3b Screen Ref Fold (fold of CFI-HSA wild type) [1]: 0.76
CFI-HSA K368G (enzyme),0.24,0.16,
CFI-HSA variant Y553H; F559L; V565I; P558S (enzyme),,,C4b Screen Ref Fold (fold of CFI-HSA wild type) (human C4b (human)): 1.58; iC3b Screen Ref Fold (fold of CFI-HSA wild type) [1]: 0.59
CFI-HSA variant Y553F (enzyme),,,C4b Screen Ref Fold (fold of CFI-HSA wild type) (human C4b (human)): 1.37; iC3b Screen Ref Fold (fold of CFI-HSA wild type) [1]: 0.67
CFI-HSA variant Y408L; P535G; P558S (enzyme),,,C4b Screen Ref Fold (fold of CFI-HSA wild type) (human C4b (human)): 0.04; iC3b Screen Ref Fold (fold of CFI-HSA wild type) [1]: 0.24
CFI-HSA K368E (enzyme),0.06,0.2,
CFI-HSA variant F559L; V565I; P558S (enzyme),,,C4b Screen Ref Fold (fold of CFI-HSA wild type) (human C4b (human)): 0.43; iC3b Screen Ref Fold (fold of CFI-HSA wild type) [1]: 0.49
CFI-HSA variant S552G; F559L; P558S (enzyme),,,C4b Screen Ref Fold (fold of CFI-HSA wild type) (human C4b (human)): 0.93; iC3b Screen Ref Fold (fold of CFI-HSA wild type) [1]: 0.44
CFI-HSA D549Y (enzyme),0.08,0.42,
CFI-HSA variant N159Q (enzyme),0.75,2.21,
CFI-HSA Y408L; N531G; R557A (enzyme),3.77,0.77,
fH_CCP1-4; GGGGSS(7); wt hCFI (enzyme),1.21,0.77,
CFI-HSA variant Y408L; P535G; WT; GGSSGG (SEQ ID NO: 6); CR1(ccp15-17) (from UniProt P17927) (enzyme),,,C4b Screen Ref Fold (fold of CFI-HSA wild type) (human C4b (human)): 3.01; iC3b Screen Ref Fold (fold of CFI-HSA wild type) [1]: 0.03
CFI-HSA K424N (enzyme),0.5,1.48,
CFI-HSA E457G; E461Q; N531G; GGSSGG (SEQ ID NO: 6); CR1 (ccp15-17) (from UniProt P17927) (enzyme),4.82,0.12,
CFI-HSA variant P535G (enzyme),0.3,0.19,
CFI-HSA P535G; E530Y (enzyme),0.11,0.22,

Substance,C4b Screen Ref Fold (fold vs CFI-HSA wild type) (human C4b (human)),iC3b Screen Ref Fold (fold vs CFI-HSA wild type) [1],further results
CFI-HSA variant N531G; P535G; N422K (enzyme),,,C4b Screen Ref Fold (fold of CFI-HSA wild type) (human C4b (human)): 2.85; iC3b Screen Ref Fold (fold of CFI-HSA wild type) [1]: 1.96
CFI-HSA variant D425R; Y408L; N531G; E457G; E461Q; R462K; F464Y; E416A (enzyme),,,C4b Screen Ref Fold (fold of CFI-HSA wild type) (human C4b (human)): 3.88; iC3b Screen Ref Fold (fold of CFI-HSA wild type) [1]: 1.63
CFI-HSA R557N (enzyme),1.87,0.05,
CFI-HSA E457G; N531G; E461Q; R462K; F464Y; E530Y (enzyme),5.7,1.83,
CFI-HSA variant E457G; N531G; WT; GGSSGG (SEQ ID NO: 6); CR1(ccp15-17) (from UniProt P17927) (enzyme),,,C4b Screen Ref Fold (fold of CFI-HSA wild type) (human C4b (human)): 4.95; iC3b Screen Ref Fold (fold of CFI-HSA wild type) [1]: 0.15
CFI-HSA F537G (enzyme),0.03,0.37,
CFI-HSA E457G; N531G; D425R; E530Y (enzyme),5.37,0.78,
CFI-HSA variant F559L; V565I (enzyme),,,C4b Screen Ref Fold (fold of CFI-HSA wild type) (human C4b (human)): 0.77; iC3b Screen Ref Fold (fold of CFI-HSA wild type) [1]: 1.59
CFI-HSA D549N (enzyme),1.08,1.48,
CFI-HSA F399G (enzyme),0.05,0.65,
CFI-HSA R557F (enzyme),2.13,0.12,
CFI-HSA variant Y553H; F559L (enzyme),,,C4b Screen Ref Fold (fold of CFI-HSA wild type) (human C4b (human)): 1.16; iC3b Screen Ref Fold (fold of CFI-HSA wild type) [1]: 0.32
CFI-HSA variant Δ(V565) (enzyme),,,C4b Screen Ref Fold (fold relative to CFI-HSA wild type) (human C4b (human)): 1.57; iC3b Screen Ref Fold (fold relative to CFI-HSA wild type) [1]: 0.54
CFI-HSA variant Y408L; E457G; P535G; P558S (enzyme),,,C4b Screen Ref Fold (fold of CFI-HSA wild type) (human C4b (human)): 1.08; iC3b Screen Ref Fold (fold of CFI-HSA wild type) [1]: 0.7
CFI-HSA K424A (enzyme),0.26,0.87,
CFI-HSA K424V (enzyme),0.29,0.89,
CFI-HSA variant Y553H; V565I; P558S (enzyme),,,C4b Screen Ref Fold (fold of CFI-HSA wild type) (human C4b (human)): 1.75; iC3b Screen Ref Fold (fold of CFI-HSA wild type) [1]: 0.46
CFI-HSA variant F559L; Y563H; V565T (enzyme),,,C4b Screen Ref Fold (fold of CFI-HSA wild type) (human C4b (human)): 0.55; iC3b Screen Ref Fold (fold of CFI-HSA wild type) [1]: 0.58
WT; GGSSGG (SEQ ID NO: 6); CCP_2-4 (enzyme),0.38,0,
CFI-HSA variant S552G (enzyme),,,C4b Screen Ref Fold (fold of CFI-HSA wild type) (human C4b (human)): 1.08; iC3b Screen Ref Fold (fold of CFI-HSA wild type) [1]: 0.58
CFI-HSA Y408L; E457G; N531G; D425R; E530Y (enzyme),4.1,1.08,
